According to paper PMC12977500, “Mechanistic insights into SteAB regulation of cell wall hydrolase RipA in Mycobacterium tuberculosis” (mBio, 2026):

Key:
[1] = biological target: T1, MtSteB△TM (soluble M. tuberculosis SteB devoid of its TM domain, residues 38–314) (Mycobacterium tuberculosis, UniProt P9WJ83 38-314); assay: BLI; biotinylated MtRipACC immobilised on streptavidin biosensors; Octet-Red384, 25°C; 25 mM HEPES pH 7.5, 150 mM NaCl, 5% glycerol, 1 mg/mL BSA, 0.05% Tween 20; MtSteB 200–3.125 μM or MtRipACAT 80–1.25 μM; steady-state signal, one-site binding model; apparent Kd; conditions: both partners purified
T1 construct: Homodimer in both crystal structures; also called MctB; Rv1698; not shown: His6, N-terminal, cleaved; SUMO, N-terminal, cleaved
T1 sequence (P9WJ83 38-314): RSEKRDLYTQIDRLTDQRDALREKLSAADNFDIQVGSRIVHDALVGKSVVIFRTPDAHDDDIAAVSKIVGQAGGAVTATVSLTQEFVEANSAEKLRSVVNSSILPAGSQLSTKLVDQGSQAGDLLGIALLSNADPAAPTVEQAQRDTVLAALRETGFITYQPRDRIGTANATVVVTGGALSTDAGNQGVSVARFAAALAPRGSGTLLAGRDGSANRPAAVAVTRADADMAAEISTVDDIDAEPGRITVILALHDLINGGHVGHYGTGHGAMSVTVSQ

[2] = biological target: the molecule itself; assay: SEC-SLS; SEC with triple detection (UV, refractometer, SLS 7° and 90°, viscometer), Superdex 75 Increase 10/300 GL, 25 mM Hepes pH 7.5, 150 mM NaCl, 20°C; sample 1–5 mg/mL

Binder	Kd [1]	stoichiometry N [2]
MtRipACC (coiled-coil domain of M. tuberculosis RipA, residues 40–240) (domain or fragment, biotin (EZ-Link NHS-PEG4-Biotin, 20 molar excess) in the BLI assays only, Biotinylated and immobilised on streptavidin sensors for BLI; not biotinylated in the crystal of the complex; also called RipA coiled-coil domain; CC domain of RipA; not shown: His6, N-terminal, cleaved; SUMO, N-terminal, cleaved) DPQTDTIAALIADVAKANQRLQDLSDEVQAEQESVNKAMVDVETARDNAAAAEDDLEVSQRAVKDANAAIAAAQHRFDTFAAATYMNGPSVSYLSASSPDEIIATVTAAKTLSASSQAVMANLQRARTERVNTESAARLAKQKADKAAADAKASQDAAVAALTETRRKFDEQREEVQRLAAERDAAQARLQAARLVAWSSE	42.6 ± 4.4 µM	
MtSteA△TM (truncated soluble construct of M. tuberculosis SteA, residues 12–344) (domain or fragment, Dimer in solution and in the crystal; also called Rv1697; not shown: His6, N-terminal, cleaved; SUMO, N-terminal, cleaved) SRPGLIGIARVDRNIDRLLRRVCPGDIVVLDVLDLDRITADALVEAEIAAVVNASSSVSGRYPNLGPEVLVTNGVTLIDETGPEIFKKVKDGAKVRLYEGGVYAGDRRLIRGTERTDHDIADLMREAKSGLVAHLEAFAGNTIEFIRSESPLLIDGIGIPDVDVDLRRRHVVIVADEPSGPDDLKSLKPFIKEYQPVLVGVGTGADVLRKAGYRPQLIVGDPDQISTEVLKCGAQVVLPADADGHAPGLERIQDLGVGAMTFPAAGSATDLALLLADHHGAALLVTAGHAANIETFFDRTRVQSNPSTFLTRLRVGEKLVDAKAVATLYRNHI		2
